The text below walks through data of US20250043019A1 (Janssen / Centocor, published 2025).

What all share (assay): cell-based or functional assay
Experiment [1] concerns the target T1, human CD79b on the cell surface (human, UniProt P40259 29-229).
T1 sequence: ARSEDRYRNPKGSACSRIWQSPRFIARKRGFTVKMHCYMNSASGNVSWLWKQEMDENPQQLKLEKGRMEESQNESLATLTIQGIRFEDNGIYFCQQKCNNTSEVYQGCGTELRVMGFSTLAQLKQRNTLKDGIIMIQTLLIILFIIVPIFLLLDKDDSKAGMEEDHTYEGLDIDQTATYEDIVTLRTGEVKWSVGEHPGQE

The target of experiment [2] is T1, human CD79b on the cell surface. This is another data set of the same source.
Experiment [3] addresses T2, human CD20 on the cell surface (human, UniProt P11836 1-297).
T2 sequence (looked up): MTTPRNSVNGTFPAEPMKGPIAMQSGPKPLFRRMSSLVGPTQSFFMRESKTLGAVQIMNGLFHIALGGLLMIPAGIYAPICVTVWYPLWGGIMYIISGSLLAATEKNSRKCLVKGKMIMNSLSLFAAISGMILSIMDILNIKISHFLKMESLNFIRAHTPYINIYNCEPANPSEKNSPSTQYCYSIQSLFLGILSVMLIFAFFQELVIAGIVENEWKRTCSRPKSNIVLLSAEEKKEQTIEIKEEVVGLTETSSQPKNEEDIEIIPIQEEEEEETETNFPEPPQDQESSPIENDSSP

B1: C923B169 CD79bxCD20xCD3 trispecific antibody (CD9B374 Fab x C20B648 LH scFv x CD3B2030 N106A LH scFv) (other)
heavy: QVQLQESGPGLVKPSETLSLTCSVSGASISSFYWSWIRQPADEGLEWIGRISPSGKTNYIPSLKSRIIMSLDASKNQFSLRLNSVTAADTAMYYCARGEYSGTYSYSFDVWGQGTMVTVSSASTKGPSVFPLAPSSKSTSGGTAALGCLVKDYFPEPVTVSWNSGALTSGVHTFPAVLQSSGLYSLSSVVTVPSSSLGTQTYICNVNHKPSNTKVDKKVEPKSCDKTHTCPPCPAPEAAGGPSVFLFPPKPKDTLMISRTPEVTCVVVSVSHEDPEVKFNWYVDGVEVHNAKTKPREEQYNSTYRVVSVLTVLHQDWLNGKEYKCKVSNKALPAPIEKTISKAKGQPREPQVYTLPPSREEMTKNQVSLSCAVKGFYPSDIAVEWESNGQPENNYKTTPPVLDSDGSFFLVSKLTVDKSRWQQGNVFSCSVMHEALHNRFTQKSLSLSPGK
light: DIVMTQSPLSLSVTPGEPASISCRSSESLLDSEDGNTYLDWFLQKPGQSPQLLIYTLSYRASGVPDRFSGSGSDTDFTLHISSLEAEDVGLYYCMQRMEFPLTFGQGTKVEIKRTVAAPSVFIFPPSDEQLKSGTASVVCLLNNFYPREAKVQWKVDNALQSGNSQESVTEQDSKDSTYSLSSTLTLSKADYEKHKVYACEVTHQGLSSPVTKSFNRGEC
chain: EIVLTQSPATLSASPGERVTLSCSASSSVSYMNWYQQKPGQAPRRWIYDSSKLASGVPARFSGSGSGRDYTLTISSLEPEDFAVYYCQQWSRNPPTFGGGTKVEIKGGSEGKSSGSGSESKSTGGSQVQLVQSGAEVKKPGSSVKVSCKASGYTFTRSTMHWVKQAPGQGLEWIGYINPSSAYTNYNQKFQGRVTLTADKSTSTAYMELSSLRSEDTAVYYCASPQVHYDYAGFPYWGQGTLVTVSSEPKSSDKTHTCPPCPAPEAAGGPSVFLFPPKPKDTLMISRTPEVTCVVVSVSHEDPEVKFNWYVDGVEVHNAKTKPREEQYNSTYRVVSVLTVLHQDWLNGKEYKCKVSNKALPAPIEKTISKAKGQPREPQVYTLPPSREEMTKNQVSLWCLVKGFYPSDIAVEWESNGQPENNYKTTPPVLDSDGSFFLYSKLTVDKSRWQQGNVFSCSVMHEALHNHYTQKSLSLSPGKGGGGSGGGGSGGGGSGGGGSEIVLTQSPATLSLSPGERATLSCRASLSVSSMHWYQQKPGQAPRLLIYATSNLASGIPARFSGSGSGTDFTLTISSLEPEDFAVYYCQQWIFNPPTFGGGTKVEIKGGSEGKSSGSGSESKSTGGSQVQLVQSGAEVKKPGSSVKVSCKASGYTFSSYNMHWVRQAPGQGLEWMGAIYPGAGDTSYAQKFQGRVTITADESTSTAYMELSSLRSEDTAVYYCARSNYYGSSGWYFDVWGKGTTVTVSS
For B1, the “EC50, decrease of IL-10 secretion by CD79b mutant OCI-Ly10 cells (MSD assay)” value in experiment [1] was found to be 15.4 nM. Also, the “EC50, long-term Incucyte cytotoxicity, K562 CD79b” value in experiment [2] amounted to 1.04 nM. Also, the “EC50, long-term Incucyte cytotoxicity, K562 CD20” value in experiment [3] was 4.08 nM.
